According to patent publication US20260265379A1:

Molecular target: BTN3A expressed at the cell surface (human), O00481
Test: cell-based or functional assay

BTN3A expressed at the cell surface (human), O00481, sequence (O00481 30-513): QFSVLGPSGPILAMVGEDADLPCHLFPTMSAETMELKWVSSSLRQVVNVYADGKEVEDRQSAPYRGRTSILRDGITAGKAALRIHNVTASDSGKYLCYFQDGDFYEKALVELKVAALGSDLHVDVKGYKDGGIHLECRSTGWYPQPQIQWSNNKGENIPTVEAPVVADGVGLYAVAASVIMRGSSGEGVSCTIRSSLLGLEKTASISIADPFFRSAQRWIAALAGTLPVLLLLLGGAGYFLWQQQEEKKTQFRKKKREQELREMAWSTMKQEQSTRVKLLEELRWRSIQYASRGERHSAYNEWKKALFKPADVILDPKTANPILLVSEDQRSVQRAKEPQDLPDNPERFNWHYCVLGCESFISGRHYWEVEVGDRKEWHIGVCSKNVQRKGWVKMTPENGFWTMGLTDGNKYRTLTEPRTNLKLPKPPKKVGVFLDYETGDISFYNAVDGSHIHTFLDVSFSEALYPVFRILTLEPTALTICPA

Row | Binder | Jurkat-Vy9Vo2 TCR MOP activation at 0.5 nM (fold-change to medium) | Jurkat-Vy9Vo2 TCR MOP activation at 5 nM (fold-change to medium)
1 | bsAb022 (bispecific antibody) heavy: QVQLVQSGVEVKKPGASVKVSCKASGYTFTNYYMYWVRQAPGQGLEWMGGINPSNGGTNFNEKFKNRVTLTTDSSTTTAYMELKSLQFDDTAVYYCARRDYRFDMGFDYWGQGTTVTVSSGGGGSGGGGSGGGGSGGGGSEIVLTQSPATLSLSPGERATLSCRASKGVSTSGYSYLHWYQQKPGQAPRLLIYLASYLESGVPARFSGSGSGTDFTLTISSLEPEDFAVYYCQHSRDLPLTFGGGTKVEIKGGGGSGGGGSGGGGSGGGGSQVQLVQSGAEVKKPGASVKLSCKASGYIFTRYYMYWVKQRPGQGLEWIGEINPNNGGTKFNEKFKNRATLTVDKSISTAYMELSRLRSDDTAVYYCSREDDYDGTPFAMDYWGQGTLVTVSSASTKGPSVFPLAPSSKSTSGGTAALGCLVKDYFPEPVTVSWNSGALTSGVHTFPAVLQSSGLYSLSSVVTVPSSSLGTQTYICNVNHKPSNTKVDKRVEPKSCDKTHTCPPCPAPEFEGGPSVFLFPPKPKDTLMISRTPEVTCVVVDVSHEDPEVKFNWYVDGVEVHNAKTKPREEQYNSTYRVVSVLTVLHQDWLNGKEYKCKVSNKALPASIEKTISKAKGQPREPQVYTLPPSREEMTKNQVSLTCLVKGFYPSDIAVEWESNGQPENNYKTTPPVLDSDGSFFLYSKLTVDKSRWQQGNVFSCSVMHEALHNHYTQKSLSLSPG light: not shown | 1.3 | 1.4
2 | bsAb025 (bispecific antibody) heavy: QVQLVQSGVEVKKPGASVKVSCKASGYTFTNYYMYWVRQAPGQGLEWMGGINPSNGGTNFNEKFKNRVTLTTDSSTTTAYMELKSLQFDDTAVYYCARRDYRFDMGFDYWGQGTTVTVSSASTKGPSVFPLAPSSKSTSGGTAALGCLVKDYFPEPVTVSWNSGALTSGVHTFPAVLQSSGLYSLSSVVTVPSSSLGTQTYICNVNHKPSNTKVDKKVEPKSCDKTHTGGSSGSGSGSTGTSSSGTGTSAGTTGTSASTSGSGSGGGGGSGGGGSAGGEIVLTQSPATLSLSPGERATLSCRASKGVSTSGYSYLHWYQQKPGQAPRLLIYLASYLESGVPARFSGSGSGTDFTLTISSLEPEDFAVYYCQHSRDLPLTFGGGTKVEIKRTVAAPSVFIFPPSDEQLKSGTASVVCLLNNFYPREAKVQWKVDNALQSGNSQESVTEQDSKDSTYSLSSTLTLSKADYEKHKVYACEVTHQGLSSPVTKSFNRGECGGGGSGGGGSGGGGSGGGGSQVQLVQSGAEVKKPGASVKLSCKASGYIFTRYYMYWVKQRPGQGLEWIGEINPNNGGTKFNEKFKNRATLTVDKSISTAYMELSRLRSDDTAVYYCSREDDYDGTPFAMDYWGQGTLVTVSSASTKGPSVFPLAPSSKSTSGGTAALGCLVKDYFPEPVTVSWNSGALTSGVHTFPAVLQSSGLYSLSSVVTVPSSSLGTQTYICNVNHKPSNTKVDKRVEPKSCDKTHTCPPCPAPEFEGGPSVFLFPPKPKDTLMISRTPEVTCVVVDVSHEDPEVKFNWYVDGVEVHNAKTKPREEQYNSTYRVVSVLTVLHQDWLNGKEYKCKVSNKALPASIEKTISKAKGQPREPQVYTLPPSREEMTKNQVSLTCLVKGFYPSDIAVEWESNGQPENNYKTTPPVLDSDGSFFLYSKLTVDKSRWQQGNVFSCSVMHEALHNHYTQKSLSLSPG light: not shown | 1 | 1.2
3 | bsAb026 (bispecific antibody) heavy: QVQLVQSGAEVKKPGASVKLSCKASGYIFTRYYMYWVKQRPGQGLEWIGEINPNNGGTKFNEKFKNRATLTVDKSISTAYMELSRLRSDDTAVYYCSREDDYDGTPFAMDYWGQGTLVTVSSASTKGPSVFPLAPSSKSTSGGTAALGCLVKDYFPEPVTVSWNSGALTSGVHTFPAVLQSSGLYSLSSVVTVPSSSLGTQTYICNVNHKPSNTKVDKRVEPKSCDKTHTCPPCPAPEFEGGPSVFLFPPKPKDTLMISRTPEVTCVVVDVSHEDPEVKFNWYVDGVEVHNAKTKPREEQYNSTYRVVSVLTVLHQDWLNGKEYKCKVSNKALPASIEKTISKAKGQPREPQVYTLPPSREEMTKNQVSLTCLVKGFYPSDIAVEWESNGQPENNYKTTPPVLDSDGSFFLYSKLTVDKSRWQQGNVFSCSVMHEALHNHYTQKSLSLSPGGGGGSGGGGSGGGGSGGGGSQVQLVQSGVEVKKPGASVKVSCKASGYTFTNYYMYWVRQAPGQGLEWMGGINPSNGGTNFNEKFKNRVTLTTDSSTTTAYMELKSLQFDDTAVYYCARRDYRFDMGFDYWGQGTTVTVSSASTKGPSVFPLAPSSKSTSGGTAALGCLVKDYFPEPVTVSWNSGALTSGVHTFPAVLQSSGLYSLSSVVTVPSSSLGTQTYICNVNHKPSNTKVDKKVEPKSCDKTHTGGSSGSGSGSTGTSSSGTGTSAGTTGTSASTSGSGSGGGGGSGGGGSAGGEIVLTQSPATLSLSPGERATLSCRASKGVSTSGYSYLHWYQQKPGQAPRLLIYLASYLESGVPARFSGSGSGTDFTLTISSLEPEDFAVYYCQHSRDLPLTFGGGTKVEIKRTVAAPSVFIFPPSDEQLKSGTASVVCLLNNFYPREAKVQWKVDNALQSGNSQESVTEQDSKDSTYSLSSTLTLSKADYEKHKVYACEVTHQGLSSPVTKSFNRGEC light: not shown | 2.9 | 1.4
4 | bsAb033 (bispecific antibody, not shown: small tags and cut ends) heavy (part 1 of 2): QVQLVQSGAEVKKPGASVKLSCKASGYIFTRYYMYWVKQRPGQGLEWIGEINPNNGGTKFNEKFKNRATLTVDKSISTAYMELSRLRSDDTAVYYCSREDDYDGTPFAMDYWGQGTLVTVSS heavy (part 2 of 2): GGGGSGGGGSGGGGSGGGGSQVQLVQSGVEVKKPGASVKVSCKASGYTFTNYYMYWVRQAPGQGLEWMGGINPSNGGTNFNEKFKNRVTLTTDSSTTTAYMELKSLQFDDTAVYYCARRDYRFDMGFDYWGQGTTVTVSSGGGGSGGGGSGGGGSGGGGSEIVLTQSPATLSLSPGERATLSCRASKGVSTSGYSYLHWYQQKPGQAPRLLIYLASYLESGVPARFSGSGSGTDFTLTISSLEPEDFAVYYCQHSRDLPLTFGGGTKVEIK heavy: QVQLVQSGAEVKKPGASVKLSCKASGYIFTRYYMYWVKQRPGQGLEWIGEINPNNGGTKFNEKFKNRATLTVDKSISTAYMELSRLRSDDTAVYYCSREDDYDGTPFAMDYWGQGTLVTVSS light: not shown | 7.8 | 7.1
5 | bsAb038 (bispecific antibody, not shown: small tags and cut ends) heavy (part 1 of 2): QVQLVQSGAEVKKPGASVKLSCKASGYIFTRYYMYWVKQRPGQGLEWIGEINPNNGGTKFNEKFKNRATLTVDKSISTAYMELSRLRSDDTAVYYCSREDDYDGTPFAMDYWGQGTLVTVSS heavy (part 2 of 2): GGGGSGGGGSGGGGSGGGGSEIVLTQSPATLSLSPGERATLSCRASKGVSTSGYSYLHWYQQKPGQAPRLLIYLASYLESGVPARFSGSGSGTDFTLTISSLEPEDFAVYYCQHSRDLPLTFGGGTKVEIKGGGGSGGGGSGGGGSGGGGSQVQLVQSGVEVKKPGASVKVSCKASGYTFTNYYMYWVRQAPGQGLEWMGGINPSNGGTNFNEKFKNRVTLTTDSSTTTAYMELKSLQFDDTAVYYCARRDYRFDMGFDYWGQGTTVTVSS heavy: QVQLVQSGAEVKKPGASVKLSCKASGYIFTRYYMYWVKQRPGQGLEWIGEINPNNGGTKFNEKFKNRATLTVDKSISTAYMELSRLRSDDTAVYYCSREDDYDGTPFAMDYWGQGTLVTVSS light: not shown | 8.5 | 7.2
6 | bsAb047 (bispecific antibody, not shown: small tags and cut ends) heavy 1: EIVLTQSPATLSLSPGERATLSCRASKGVSTSGYSYLHWYQQKPGQAPRLLIYLASYLESGVPARFSGSGSGTDFTLTISSLEPEDFAVYYCQHSRDLPLTFGGGTKVEIKGGGGSGGGGSGGGGSGGGGSQVQLVQSGVEVKKPGASVKVSCKASGYTFTNYYMYWVRQAPGQGLEWMGGINPSNGGTNFNEKFKNRVTLTTDSSTTTAYMELKSLQFDDTAVYYCARRDYRFDMGFDYWGQGTTVTVSSGGGGSGGGGSGGGGSGGGGSQVQLVQSGAEVKKPGASVKLSCKASGYIFTRYYMYWVKQRPGQGLEWIGEINPNNGGTKFNEKFKNRATLTVDKSISTAYMELSRLRSDDTAVYYCSREDDYDGTPFAMDYWGQGTLVTVSS heavy 2: QVQLVQSGAEVKKPGASVKLSCKASGYIFTRYYMYWVKQRPGQGLEWIGEINPNNGGTKFNEKFKNRATLTVDKSISTAYMELSRLRSDDTAVYYCSREDDYDGTPFAMDYWGQGTLVTVSS light: not shown | 4 | 5.8
7 | bsAb049 (bispecific antibody, not shown: small tags and cut ends) heavy 1: QVQLVQSGVEVKKPGASVKVSCKASGYTFTNYYMYWVRQAPGQGLEWMGGINPSNGGTNFNEKFKNRVTLTTDSSTTTAYMELKSLQFDDTAVYYCARRDYRFDMGFDYWGQGTTVTVSSGGGGSGGGGSGGGGSGGGGSEIVLTQSPATLSLSPGERATLSCRASKGVSTSGYSYLHWYQQKPGQAPRLLIYLASYLESGVPARFSGSGSGTDFTLTISSLEPEDFAVYYCQHSRDLPLTFGGGTKVEIKGGGGSGGGGSGGGGSGGGGSQVQLVQSGAEVKKPGASVKLSCKASGYIFTRYYMYWVKQRPGQGLEWIGEINPNNGGTKFNEKFKNRATLTVDKSISTAYMELSRLRSDDTAVYYCSREDDYDGTPFAMDYWGQGTLVTVSS heavy 2: QVQLVQSGAEVKKPGASVKLSCKASGYIFTRYYMYWVKQRPGQGLEWIGEINPNNGGTKFNEKFKNRATLTVDKSISTAYMELSRLRSDDTAVYYCSREDDYDGTPFAMDYWGQGTLVTVSS light: not shown | 5.9 | 6.2
8 | bsAb052 (bispecific antibody, not shown: small tags and cut ends; a dimerising Fc or GST) heavy (part 1 of 2): QVQLVQSGAEVKKPGASVKLSCKASGYIFTRYYMYWVKQRPGQGLEWIGEINPNNGGTKFNEKFKNRATLTVDKSISTAYMELSRLRSDDTAVYYCSREDDYDGTPFAMDYWGQGTLVTVSS heavy (part 2 of 2): GGGGSGGGGSGGGGSGGGGSQVQLVQSGVEVKKPGASVKVSCKASGYTFTNYYMYWVRQAPGQGLEWMGGINPSNGGTNFNEKFKNRVTLTTDSSTTTAYMELKSLQFDDTAVYYCARRDYRFDMGFDYWGQGTTVTVSSGGGGSGGGGSGGGGSGGGGSEIVLTQSPATLSLSPGERATLSCRASKGVSTSGYSYLHWYQQKPGQAPRLLIYLASYLESGVPARFSGSGSGTDFTLTISSLEPEDFAVYYCQHSRDLPLTFGGGTKVEIK heavy: GGGGSGGGGSGGGGSGGGGSQVQLVQSGVEVKKPGASVKVSCKASGYTFTNYYMYWVRQAPGQGLEWMGGINPSNGGTNFNEKFKNRVTLTTDSSTTTAYMELKSLQFDDTAVYYCARRDYRFDMGFDYWGQGTTVTVSSGGGGSGGGGSGGGGSGGGGSEIVLTQSPATLSLSPGERATLSCRASKGVSTSGYSYLHWYQQKPGQAPRLLIYLASYLESGVPARFSGSGSGTDFTLTISSLEPEDFAVYYCQHSRDLPLTFGGGTKVEIK light: not shown | 4.2 | 4.5
